Experimental data: patent US20240270821A1, “GIP/GLP1/GCG TRI-RECEPTOR AGONISTS AND USES THEREOF” (priority 2023, published 2024)
Starred links: 1 amine or outer side, 2 acyl side, 3 side chain; linkers in the order of their positions; H or OH if unused. Non-standard residues stand in square brackets, D forms with d. Groups on a side chain read outwards from the residue. No end group written: not given here. *: point of attachment. C20 diacid = O=C(O)CCCCCCCCCCCCCCCCCCC(=O)*; Phe(4-CN) = N#Cc1ccc(C[C@H](N)C(=O)O)cc1; αMePhe(2-F) = C[C@](N)(Cc1ccccc1F)C(=O)O; γGlu = O=C(O)[C@H](CCC(=O)[*:2])N[*:1]; NMeY = CN[C@@H](Cc1ccc(O)cc1)C(=O)O; αMeF = C[C@](N)(Cc1ccccc1)C(=O)O; αMeL = CC(C)C[C@](C)(N)C(=O)O; Orn = NCCC[C@H](N)C(=O)O; AEEA = NCCOCCOCC(=O)O; Aib = CC(C)(N)C(=O)O

T1: hGIPR (Homo sapiens, UniProt P48546)
T1 sequence (P48546 22-466): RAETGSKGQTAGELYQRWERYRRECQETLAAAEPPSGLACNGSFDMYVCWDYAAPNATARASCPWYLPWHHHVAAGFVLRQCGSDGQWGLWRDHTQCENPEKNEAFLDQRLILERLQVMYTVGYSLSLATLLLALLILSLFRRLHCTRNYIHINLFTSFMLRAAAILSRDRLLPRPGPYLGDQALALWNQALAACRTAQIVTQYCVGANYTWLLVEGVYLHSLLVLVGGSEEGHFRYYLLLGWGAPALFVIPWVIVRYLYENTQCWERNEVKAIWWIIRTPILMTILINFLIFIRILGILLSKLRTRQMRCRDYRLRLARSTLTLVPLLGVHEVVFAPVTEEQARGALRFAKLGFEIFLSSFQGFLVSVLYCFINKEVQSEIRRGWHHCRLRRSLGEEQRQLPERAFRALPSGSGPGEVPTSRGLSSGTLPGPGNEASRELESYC

T2: human GIP receptor (human) (UniProt P48546)
T2 sequence (looked up): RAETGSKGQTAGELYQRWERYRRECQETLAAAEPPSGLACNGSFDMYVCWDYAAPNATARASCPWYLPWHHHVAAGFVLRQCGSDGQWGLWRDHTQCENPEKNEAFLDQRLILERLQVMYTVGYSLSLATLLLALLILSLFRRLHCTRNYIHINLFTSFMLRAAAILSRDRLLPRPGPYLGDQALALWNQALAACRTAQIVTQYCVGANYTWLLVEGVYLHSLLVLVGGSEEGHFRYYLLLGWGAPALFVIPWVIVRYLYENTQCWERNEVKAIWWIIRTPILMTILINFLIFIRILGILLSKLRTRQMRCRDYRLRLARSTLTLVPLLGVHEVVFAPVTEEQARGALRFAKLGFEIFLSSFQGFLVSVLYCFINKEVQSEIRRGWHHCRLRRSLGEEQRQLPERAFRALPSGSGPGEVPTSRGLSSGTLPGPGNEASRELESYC


Legend:
[1] = target: T1, hGIPR; test: Functional cAMP activity in the presence of 1% HSA; type: cell-based; conditions: read-out: cAMP Rel EC50, hGIPR
[2] = target: T3, hGLP-1R (Homo sapiens, UniProt P43220); test: Functional cAMP activity in the presence of 1% HSA; type: cell-based; conditions: read-out: cAMP Rel EC50, hGLP-1R
Target sequence in this assay (P43220 24-463): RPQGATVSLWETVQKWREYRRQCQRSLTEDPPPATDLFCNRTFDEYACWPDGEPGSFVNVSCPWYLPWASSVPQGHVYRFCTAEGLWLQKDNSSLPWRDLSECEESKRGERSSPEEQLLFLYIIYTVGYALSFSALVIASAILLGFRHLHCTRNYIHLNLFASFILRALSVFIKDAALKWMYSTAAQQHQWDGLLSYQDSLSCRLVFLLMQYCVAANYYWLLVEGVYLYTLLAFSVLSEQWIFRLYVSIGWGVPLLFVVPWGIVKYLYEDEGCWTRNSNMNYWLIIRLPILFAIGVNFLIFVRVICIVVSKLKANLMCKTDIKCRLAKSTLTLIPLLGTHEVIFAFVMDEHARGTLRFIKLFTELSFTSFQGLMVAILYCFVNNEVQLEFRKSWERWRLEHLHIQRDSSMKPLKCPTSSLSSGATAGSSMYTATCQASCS

[3] = target: human GcgR (Homo sapiens, UniProt P47871); test: Functional cAMP activity in the presence of 1% HSA; type: cell-based; conditions: read-out: cAMP Rel EC50, hGcgR
[4] = target: T1, hGIPR; test: Functional cAMP activation in the presence of 0.1% casein (no HSA); type: cell-based; conditions: in the presence of 0.1% casein (no HSA); geometric mean; read-out: Relative cAMP EC50, hGIPR;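 for Relative cAMP EC50, hGIPR: intracellular cAMP rise after 30 min at 37 °C read by HTRF against a standard curve, scaled between buffer alone (0%) and top control ligand concentration (100%), four-parameter fit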;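 for Relative cAMP EC50, hGLP-1R: intracellular cAMP rise after 30 min at 37 °C read by HTRF, normalized between buffer only (0%) and maximal control ligand (100%), four-parameter variable-slope fit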;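 for Relative cAMP EC50, hGcgR: intracellular cAMP rise after 30 min at 37 °C, read by HTRF against a cAMP standard curve, scaled from buffer only (0%) to maximal control ligand response (100%)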
[5] = target: hGcgR (Homo sapiens, UniProt P47871); test: as above; type: cell-based; conditions: in the presence of 0.1% casein (no HSA); geometric mean; read-out: Relative cAMP EC50, hGcgR;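 note: intracellular cAMP rise after 30 min at 37 °C, read by HTRF against a cAMP standard curve, scaled from buffer only (0%) to maximal control ligand response (100%)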
[6] = target: T3, hGLP-1R; test: as above; type: cell-based; conditions: in the presence of 0.1% casein (no HSA); geometric mean; read-out: Relative cAMP EC50, hGLP-1R
Target sequence in this assay (P43220 24-463): as above

[7] = target: T3, hGLP-1R; test: GLP-1R CHO cell β-arrestin recruitment assay; type: cell-based; set-up: host or cells: CHO-K1 (PathHunter, assay-ready frozen cells); conditions: for EC50: CHO-K1 PathHunter, β-arrestin-2, 0.1% casein, read-out: hGLP1R β-arrestin Rel EC50; for % Stimulation Max: normalized to GLP-1(7-36) as maximum control;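 for all read-outs here: luminescence read after 90 min peptide exposure at 37 °C and a further 60 min with detection reagent at room temperature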
Target sequence in this assay (P43220 24-463): as above
Target sequence in this assay (P32121 whole entry partner): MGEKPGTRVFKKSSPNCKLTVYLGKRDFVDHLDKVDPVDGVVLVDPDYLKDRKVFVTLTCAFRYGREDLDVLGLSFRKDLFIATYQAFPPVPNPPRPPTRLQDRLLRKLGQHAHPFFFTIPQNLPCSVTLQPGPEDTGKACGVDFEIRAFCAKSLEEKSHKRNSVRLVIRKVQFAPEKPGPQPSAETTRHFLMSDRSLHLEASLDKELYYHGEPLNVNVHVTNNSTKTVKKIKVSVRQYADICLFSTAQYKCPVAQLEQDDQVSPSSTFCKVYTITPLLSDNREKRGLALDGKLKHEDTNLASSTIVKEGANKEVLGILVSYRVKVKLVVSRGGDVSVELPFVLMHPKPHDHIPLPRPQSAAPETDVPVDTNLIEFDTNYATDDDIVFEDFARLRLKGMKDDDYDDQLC
Experimental: CHO-KI cells expressing Pro-Link-tagged Human GLP-1R and enzyme-acceptor-tagged β-arrestin-2 may be obtained from DiscoveRx and prepared as assay-ready frozen cells. Test peptides are solubilized in DMSO and serial dilutions are performed using the Echo acoustic dispenser (LabCyte). Assay media is the PathHunter Cell Assay Buffer (DiscoveRx) containing 0.1% w/v hydrolyzed Casein (Sigma). […] Plates are incubated for 90 minutes in a 37′C/5% C02 incubator and 10 μl of PathHunter detection reagent is added (DiscoveRx) and plates are incubated at room temperature for 60 minutes. Luminescence signal is measured. Peptide concentration-response curves fit to a four-parameter logistic model to calculate potency as an EC50.

[8] = target: T2, human GIP receptor (human); test: cell-based or functional assay
[9] = target: human glucagon receptor (human) (UniProt P47871); test: cell-based or functional assay
[10] = target: T3, hGLP-1R; test: cell-based or functional assay
Target sequence in this assay (P43220 24-463): as the sequence (P43220 24-463) above

[11] = target: Pro-Link-tagged Human GLP-1R (human) (UniProt P43220); test: cell-based or functional assay
[12] = target: human GLP-1R (SNAP-GLP-1R expressed in HEK293 cells) (human) (UniProt P43220); test: cell-based or functional assay
[13] = target: human GLP1-R (SNAP-GLP-1R expressed in HEK293 cells) (human) (UniProt P43220); test: cell-based or functional assay
human GLP1-R (SNAP-GLP-1R expressed in HEK293 cells) (human), sequence (P43220 24-463): as above

human GcgR, sequence (P47871 26-477): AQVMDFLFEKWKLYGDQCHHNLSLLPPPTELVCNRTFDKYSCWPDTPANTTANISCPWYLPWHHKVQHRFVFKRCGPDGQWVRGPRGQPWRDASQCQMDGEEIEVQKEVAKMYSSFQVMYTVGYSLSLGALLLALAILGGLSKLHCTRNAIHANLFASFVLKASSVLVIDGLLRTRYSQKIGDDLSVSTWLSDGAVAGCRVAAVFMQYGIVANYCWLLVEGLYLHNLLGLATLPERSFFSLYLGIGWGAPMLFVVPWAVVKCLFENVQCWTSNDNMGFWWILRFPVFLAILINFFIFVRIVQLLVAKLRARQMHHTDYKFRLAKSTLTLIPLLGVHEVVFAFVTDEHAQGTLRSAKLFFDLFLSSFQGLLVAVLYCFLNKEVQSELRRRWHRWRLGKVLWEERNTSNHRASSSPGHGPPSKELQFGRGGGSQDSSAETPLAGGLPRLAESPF
hGcgR, sequence (P47871 26-477): as above
human glucagon receptor (human), sequence (P47871 26-477): as above
human GLP-1R (SNAP-GLP-1R expressed in HEK293 cells) (human), sequence (P43220 24-463): as the sequence (P43220 24-463) above
Pro-Link-tagged Human GLP-1R (human), sequence (P43220 24-463): as above

Molecule	EC50 [1] [nM]	EC50 [2] [nM]	EC50 [3] [nM]	EC50 [5] [nM]	EC50 [6] [nM]	EC50 [7] [nM]	% Stimulation Max [7] [%]	Relative cAMP EC50 [8] [nM]	cAMP Rel EC50 (in the presence of 1% HSA) [8] [nM]	Relative cAMP EC50 [9] [nM]	cAMP Rel EC50 (in the presence of 1% HSA) [9] [nM]	Relative cAMP EC50 [10] [nM]	cAMP Rel EC50 (in the presence of 1% HSA) [10] [nM]	% Stimulation Max [11] [%]	hGLP1R β-arrestin Rel EC50 [11] [nM]	GLP1R Internalization EC50 [13] [nM]	Internalization % TOP [13] [%]	further results
H-Y[Aib]QGT[αMePhe(2-F)]TSDYSKLLDKIAQK([AEEA-γGlu-C20 diacid])AFIEYLIEGGPSSGEPPPSEG-NH2 [Example 304]	48	172	1720	2.31	0.551	9.21	47.8	–	–	–	–	–	–	–	–	–	–	EC50 [4]: 0.127 nM
H-[NMeY][Aib]QGT[αMeF]TSDYSILLDKIAAK([AEEA-AEEA-γGlu-C20 diacid])AFVQWLIAGGPSSGEPPPSEG-NH2 [Example 300]	12.9	98	976	6.54	1.05	15.7	40.3	–	–	–	–	–	–	–	–	–	–	EC50 [4]: 0.0975 nM
H-Y[Aib]QGTFTSDYSI[αMeL]LDKK([AEEA-AEEA-γGlu-C20 diacid])AA[Aib]AFIEYLLEGGPSSGEPPPSEG-NH2 [Example 294]	54.1	554	518	1.07	2.16	27.7	35.3	–	–	–	–	–	–	–	–	–	–	EC50 [4]: 0.318 nM
H-Y[Aib]QGTFTSDYSI[αMeL]LDKIAAK([AEEA-AEEA-γGlu-C20 diacid])[Orn]FVQYLIAGGPSSGEPPPSEG-NH2 [Example 308]	237	477	4950	14.2	3.15	16.9	41.4	–	–	–	–	–	–	–	–	–	–	–
Y[Aib]QGT[αMePhe(2-F)]TSDYSILLDKIAAK([AEEA-γGlu-C20 diacid])AFIEYLIEGGPSSGEPPPSEG-NH2 [Example 296]	–	–	–	–	–	–	–	0.0806	21.8	1.72	517	0.536	171	55.2	14	–	–	GLP1R Internalization EC50 [12]: 19.2 nM; Internalization % TOP [12]: 87.2%
YXQGTFTSDFSKXLDKKAQXAFIEYLLAGGPSSGEPPPSEG (synthetic construct; SITE 2: note = 2-Aminoisobutyric Acid; SITE 13: note = alpha-methyl-leucine; SITE 17: note = Lysine is chemically modified through conjugation of the epsilon-amino group of the Lysine side chain with (2-[2-(2-Amino-ethoxy)-ethoxy]-acetyl)-(gamma-Glu)-CO-(CH2) 18-CO2H; SITE 20: n) [Example 1]	–	–	–	–	–	–	–	0.207	73.9	3.72	1690	1.42	524	17.3	> 10000	44.7	69.1	–
YXQGTFTSDFSKXLDKKAQXAFIEYLLAGGPSSGEPPPSSE (synthetic construct; SITE 2: note = 2-Aminoisobutyric Acid; SITE 13: note = alpha-methyl-leucine; SITE 17: note = Lysine is chemically modified through conjugation of the epsilon-amino group of the Lysine side chain with (2-[2-(2-Amino-ethoxy)-ethoxy]-acetyl)2-(gamma-Glu)-CO-(CH2 )18-CO2H; SITE 20:) [Example 5]	–	–	–	–	–	–	–	0.177	32.5	7.4	2670	2.37	675	18.4	> 10000	53.4	75	–
YXQGTFTSDFSKXLDKKAQXAFIEYLLAGGPSSGEPPPSSE (synthetic construct; SITE 2: note = 2-Aminoisobutyric Acid; SITE 13: note = alpha-methyl-leucine; SITE 17: note = Lysine is chemically modified through conjugation of the epsilon-amino group of the Lysine side chain with (2-[2-(2-Amino-ethoxy)-ethoxy]-acetyl)-(gamma-Glu)-CO-(CH2) 18-CO2H; SITE 20: n) [Example 3]	–	–	–	–	–	–	–	0.217	48.1	3.8	1590	1.67	546	16.5	> 10000	49.2	69.7	–
YXQGTFTSDFSKXLDKKAQXAFIEYLLAGGPSSGEPPPSEE (synthetic construct; SITE 2: note = 2-Aminoisobutyric Acid; SITE 13: note = alpha-methyl-leucine; SITE 17: note = Lysine is chemically modified through conjugation of the epsilon-amino group of the Lysine side chain with (2-[2-(2-Amino-ethoxy)-ethoxy]-acetyl)-(gamma-Glu)-CO-(CH2) 18-CO2H; SITE 20: n) [Example 4]	–	–	–	–	–	–	–	0.192	62.3	3.2	1580	1.66	869	15.8	23.2	49.1	67.8	–
YXQGTFTSDFSKXLDKKAQXAFIEYLLAGGPSSGEPPPSGE (synthetic construct; SITE 2: note = 2-Aminoisobutyric Acid; SITE 13: note = alpha-methyl-leucine; SITE 17: note = Lysine is chemically modified through conjugation of the epsilon-amino group of the Lysine side chain with (2-[2-(2-Amino-ethoxy)-ethoxy]-acetyl)-(gamma-Glu)-CO-(CH2) 18-CO2H; SITE 20: n) [Example 2]	–	–	–	–	–	–	–	0.207	75.5	4.29	1630	1.65	631	12.3	> 10000	49.5	66.8	–
Y[Aib]QGT[αMePhe(2-F)]TSD[Phe(4-CN)]SILLDKQAQK([AEEA-AEEA-γGlu-C20 diacid])AFIEYLLEGGPSSGEPPPSEG-NH2 [Example 321]	–	–	–	–	–	–	–	0.0912	–	4.49	–	0.798	–	90.1	8.78	–	–	cAMP Rel EC50 (1% HSA) [8]: 13 nM; cAMP Rel EC50 (1% HSA) [9]: 836 nM; cAMP Rel EC50 (1% HSA) [10]: 110 nM; GLP1R Internalization EC50 [12]: 27.1 nM; Internalization % TOP [12]: 92.8%
Y[Aib]QGTFTSDYSI[αMeL]LDKIAAK([AEEA-AEEA-γGlu-C20 diacid])QFVQWLIE[Aib]GPSSGEPPPSEG-NH2 (ends and bridges not checked) [Example 323]	–	–	–	–	–	–	–	0.232	–	6.04	–	1.56	–	44	10.8	–	–	cAMP Rel EC50 (1% HSA) [8]: 37.7 nM; cAMP Rel EC50 (1% HSA) [9]: 1440 nM; cAMP Rel EC50 (1% HSA) [10]: 293 nM; GLP1R Internalization EC50 [12]: 28.2 nM; Internalization % TOP [12]: 84.8%
